A word on the Kd: it is the constant that tells how readily two partners part at equilibrium.

The results in this text go back to publication doi:10.1101/2024.02.29.582761.

What all share (assay): BLI
In general terms: Biolayer interferometry detects binding as a change in optical thickness at a sensor tip.

Assay [1] concerns the target His-SUMO-GroTAC1 (E. coli).
Assay [2] deals with His-SUMO-XB-GGS peptide (E. coli).
The next assay addresses His-SUMO-GGS-SBP peptide.

With “ClpX (from UniProt P0A6H1 1-424) (enzyme)”, the Kd in assay [1] stood at 70 nM; in assay [2], 65 nM.

For the substance “GroEL (from UniProt P0A6F5 1-548) (natural protein)”, the Kd with His-SUMO-GGS-SBP peptide is 94 nM; in assay [1] it was 154 nM.
